In patent US7449563B2, “Methods and compositions for destabilizing microtubules” (Academia Sinica, priority 2003, dated 2008):
Changes are numbered by the printed parent chain. Names and notes keep the numbering of the source. Values belong to the molecule of their own block, whether it stands above or below them. No end group written: not given here.

Legend:
[1] = system: HeLa cells; assay: Cell-based assay for CPAP activity: microtubule reassembly in cold-treated transfected HeLa cells; parameters: species or system human; conditions: for Inhibition of microtubule reassembly in cold-treated mitotic cells (in words): transiently transfected HeLa cells
Protocol: Cell Culture and Transfection
HeLa cells were maintained in DMEM supplemented with 10% fetal bovine serum. cDNA clones encoding different portions of CPAP were subcloned, in an appropriate reading frame, into the CMV promoter-driven EGFP-C1 expression vector (Clontech, Palo Alto, Calif.). Transient transfections were performed using Lipofectamine 2000 (Invitrogen, Carlsbad, Calif.) according to the manufacturer's instructions.
Cold Treatment, Immunofluorescence and Confocal Microscopy
HeLa cells were grown on coverslips for at least 24 hr. Cold treatment was performed by incubating the cells at 4° C. for 1 hr, then replacing the cold medium with medium warmed to 30° C. and incubating the cells for 2 min at 30° C. The cells were then fixed with 1% formaldehyde for 30 min at room temperature.
The fixed cells were incubated in the presence of anti-α-tubulin monoclonal antibodies (N356, Amersham, Piscataway, N.J.) and anti-γ-tubulin polyclonal antibodies (Sigma, Saint Louis, Mo.). Bound anti-α-tubulin monoclonal antibodies (N356) were detected with Alexa 568, a Texas Red-conjugated goat anti-mouse IgG, or Alexa 647, a far-red fluorophore-conjugated goat anti-mouse IgG. Bound anti-γ-tubulin polyclonal antibodies were detected with Alexa 568 (Molecular Probes Inc.). The resulting […] signals were detected using a laser scanning confocal system (MRC 1000, Bio-Rad Laboratories, Hercules, Calif.).
The effect of various polypeptides derived from CPAP was determined by evaluating the amounts of mitotic spindle formation in the transfected cells. Decreased mitotic spindle formation indicated the presence of an activity that inhibited microtubule formation or destabilized microtubules.

[2] = target: T1, microtubule nucleation from purified centrosomes (bovine brain tubulin) (Bos taurus, UniProt P81947+Q6B856); assay: In vitro centrosome-dependent microtubule nucleation assay; assay type: biochemical; conditions: for Inhibition of microtubule nucleation/assembly from purified centrosomes (in words): in vitro; for Effect of synthetic peptide on centrosome-dependent microtubule nucleation (in words): 20 μM or 40 μM peptide
T1 construct: containing 125 μg bovine brain tubulin (Cytoskeleton, Denver, Colo.); purchased Cytoskeleton, Denver, Colo; host or cells: bovine brain (tissue-purified)
Protocol: In vitro Centrosome-Dependant Microtubule Nucleation Assay
Isolation of centrosomes and microtubule nucleation tests were performed as described (Hung et al., 2000). To investigate the effect of different GST-truncated CPAP fusion proteins on microtubule nucleation, purified centrosomes (4 μl per reaction) were pre-incubated with the various truncated GST-CPAP fusion proteins or FPLC purified synthetic peptides for 10 min at 4° C. The reaction mixtures were then incubated in 65 μl RG1 buffer (80 mM PIPES, pH 6.8, 1 mM EGTA, 1 mM MgCl2, and 1 mM GTP) containing 125 μg bovine brain tubulin (Cytoskeleton, Denver, Colo.) for 4 min at 37° C.
Microtubules present in the reaction mixtures were fixed in 200 μl 1% glutaraldehyde in RG1 buffer, sedimented onto acid-treated coverslips, and subjected to immunofluoresence analysis using anti-α-tubulin monoclonal antibodies N356 (Amersham, Piscataway, N.J.) or FITC-conjugated anti-α-tubulin monoclonal antibodies (DM1A-FITC; Sigma, Saint Louis, Mo.). Truncated GST-CPAP proteins were detected using an anti-GST polyclonal antibody (Molecular Probes, Cincinnati, Ohio). The extent of microtubule assembly in each reaction was determined microscopically by comparing the extent of microtubule formation on each coverslip. Decreased microtubule formation in reactions comprising polypeptides derived from CPAP indicated the ability of such polypeptides to inhibit centrosome-dependent microtubule assembly.

T1 sequence (P81947 whole entry): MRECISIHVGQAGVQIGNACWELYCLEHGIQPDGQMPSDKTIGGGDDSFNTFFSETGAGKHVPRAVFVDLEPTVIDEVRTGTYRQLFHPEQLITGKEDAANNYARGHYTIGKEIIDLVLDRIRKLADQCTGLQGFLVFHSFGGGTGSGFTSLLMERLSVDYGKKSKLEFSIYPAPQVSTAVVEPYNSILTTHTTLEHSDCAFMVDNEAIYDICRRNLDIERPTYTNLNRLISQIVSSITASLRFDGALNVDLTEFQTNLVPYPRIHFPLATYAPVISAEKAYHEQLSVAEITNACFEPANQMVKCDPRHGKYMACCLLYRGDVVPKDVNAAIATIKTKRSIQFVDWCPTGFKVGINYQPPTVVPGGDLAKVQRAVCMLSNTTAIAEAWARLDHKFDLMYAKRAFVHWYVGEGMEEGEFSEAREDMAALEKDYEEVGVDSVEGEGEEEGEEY
T1 sequence (Q6B856 whole entry): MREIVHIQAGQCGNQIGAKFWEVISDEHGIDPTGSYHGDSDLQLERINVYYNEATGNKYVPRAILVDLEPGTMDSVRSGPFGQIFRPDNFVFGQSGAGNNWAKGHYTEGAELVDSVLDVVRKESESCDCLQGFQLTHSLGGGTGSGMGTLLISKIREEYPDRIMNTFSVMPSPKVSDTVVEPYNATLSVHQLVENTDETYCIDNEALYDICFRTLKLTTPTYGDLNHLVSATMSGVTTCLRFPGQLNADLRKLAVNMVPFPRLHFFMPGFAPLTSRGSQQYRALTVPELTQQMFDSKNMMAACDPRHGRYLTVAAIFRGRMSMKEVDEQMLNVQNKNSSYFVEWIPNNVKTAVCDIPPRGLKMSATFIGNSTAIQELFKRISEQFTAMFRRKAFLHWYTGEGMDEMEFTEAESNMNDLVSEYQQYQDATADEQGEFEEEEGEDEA

Molecule: GFP-PN2-1: GFP-tagged CPAP residues 132-190 (EFKEGAYKDPLFKKLEQLKEVQQKKQEQLKRQQLEQLQRLMEEQEKLLTMVSGQCTLPG; also: GFP tag, terminus not given here; UniProt Q9HC77 132-190, looked up, fragment)
Inhibition of microtubule reassembly in cold-treated mitotic cells (in words) [1]: no significant inhibition

Inhibition of microtubule nucleation/assembly from purified centrosomes (in words) [2]: less inhibition
Molecule: GST-PN2-3C: GST fusion with PN2-3C, amino acid residues 369-422 of CPAP (non-helical motif) (AKPKQPFLKRGEGLARFTNAKSKFQKGKESKLVTNQSTSEDQPLFKMDRQQLQR; also: GST tag, terminus not given here; UniProt Q9HC77 369-422, looked up, fragment)

Effect of synthetic peptide on centrosome-dependent microtubule nucleation (in words) [2]: No effect
Molecule: peptide N: synthetic peptide, amino acid residues 310-329 of CPAP (SEQ ID NO:1) (LQKHDDSSEVANIEERPIKA; listed as Homo sapiens)

Effect of synthetic peptide on centrosome-dependent microtubule nucleation (in words) [2]: No effect
Molecule: peptide C2: synthetic peptide, amino acid residues 393-423 of CPAP (SEQ ID NO:1) (QKGKESKLVTNQSTSEDQPLFKMDRQQLQRK; listed as Homo sapiens)

Effect of synthetic peptide on centrosome-dependent microtubule nucleation (in words) [2]: No effect
Molecule: peptide C1: synthetic peptide, amino acid residues 363-392 of CPAP (SEQ ID NO:1) (GPLPIKAKPKQPFLKRGEGLARFTNAKSKF; listed as Homo sapiens)

Effect of synthetic peptide on centrosome-dependent microtubule nucleation (in words) [2]: No effect
Molecule: peptide H2: synthetic peptide, amino acid residues 327-362 of CPAP (SEQ ID NO:1) (IKAAIGERKQTFEDYLEEQIQLEEQELKQKQLKEAE; listed as Homo sapiens)

Inhibition of microtubule nucleation/assembly from purified centrosomes (in words) [2]: inhibited
B1: GST-PN2: GST fusion polypeptide corresponding to amino acid residues 132-422 of CPAP (protein, UniProt Q9HC77 132-422, looked up, fragment)
chain: EFKEGAYKDPLFKKLEQLKEVQQKKQEQLKRQQLEQLQRLMEEQEKLLTMVSGQCTLPGLSLLPDDQSQKHRSPGNTTTGERATCCFPSYVYPDPTQEETYPSNILSHEQSNFCRTAHGDFVLTSKRASPNLFSEAQYQEAPVEKNNLKEENRNHPTGESILCWEKVTEQIQEANDKNLQKHDDSSEVANIEERPIKAAIGERKQTFEDYLEEQIQLEEQELKQKQLKEAEGPLPIKAKPKQPFLKRGEGLARFTNAKSKFQKGKESKLVTNQSTSEDQPLFKMDRQQLQR
modifications: GST tag
notes: GST fusion polypeptide corresponding to amino acid residues 132-422 of CPAP

B2: PN2-3: PN2-3 polypeptide with wild-type CPAP sequence, residues 311-422 of SEQ ID NO:1, expressed using pET vectors (protein, listed as Homo sapiens)
chain: QKHDDSSEVANIEERPIKAAIGERKQTFEDYLEEQIQLEEQELKQKQLKEAEGPLPIKAKPKQPFLKRGEGLARFTNAKSKFQKGKESKLVTNQSTSEDQPLFKMDRQQLQR
Inhibition of microtubule nucleation/assembly from purified centrosomes (in words) [2]: showed the ability to inhibit microtubule assembly

B3: L353P: PN2-3 polypeptide with L353 mutated to proline (protein, listed as Homo sapiens)
chain: MFLMPTSSELNSGQNFLTQWMTNPSRAGVILNRGFPILEADKEKRAAVDISTSFPIKGTHFSDSFSFINEEDSLLEEQKLESNNPYKPQSDKSETHTAFPCIKKGPQVAACHSAPGHQEENKNDFIPDRASEFKEGAYKDPLFKKLEQLKEVQQKKQEQLKRQQLEQLQRLMEEQEKLLTMVSGQCTLPGLSLLPDDQSQKHRSPGNTTTGERATCCFPSYVYPDPTQEETYPSNILSHEQSNFCRTAHGDFVLTSKRASPNLFSEAQYQEAPVEKNNLKEENRNHPTGESILCWEKVTEQIQEANDKNLQKHDDSSEVANIEERPIKAAIGERKQTFEDYLEEQIQLEEQEPKQKQLKEAEGPLPIKAKPKQPFLKRGEGLARFTNAKSKFQKGKESKLVTNQSTSEDQPLFKMDRQQLQRKTALKNKELCADNPILKKDSKARTKSGSVTLSQKPKMLKCSNRKSLSPSGLKIQTGKKCDGQFRDQIKFENKVTSNNKENVTECPKPCDTGCTGWNKTQGKDRLPLSTGPASRLAAKSPIRETMKESESSLDVSLQKKLETWEREKEKENLELDEFLFLEQAADEISFSSNSSFVLKILERDQQICKGHRMSSTPVKAVPQKTNPADPISHCNRSEDLDHTAREKESECEVAPKQLHSLSSADELREQPCKIRKAVQKSTSENQTEWNARDDEGVPNSDSSTDSEEQLDVTIKPSTEDRERGISSREDSPQVCDDKGPFKDTRTQEDKRRDVDLDLSDKDYSSDESIMESIKHKVSEPSRSSSLSLSKMDFDDERTWTDLEENLCNHDVVLGNESTYGTPQTCYPNNEIGILDKTIKRKIAPVKRGEDLSKSRRSRSPPTSELMMKFFPSLKPKPKSDSHLGNELKLNISQDQPPGDNARSQVLREKIIELETEIEKFKAENASLAKLRIERESALEKLRKEIADFEQQKAKELARIEEFKKEEMRKLQKERKVFEKYTTAARTFPDKKEREEIQTLKQQIADLREDLKRKETKWSSTHSRLRSQIQMLVRENTDLREEIKVMERFRLDAWKRAEAIESSLEVEKKDKLANTSVRFQNSQISSGTQVEKYKKNYLPMQGNPPRRSKSAPPRDLGNLDKGQAASPREPLEPLNFPDPEYKEEEEDQDIQGEISHPDGKVEKVYKNGCRVILFPNGTRKEVSADGKTITVTFFNGDVKQVMPDQRVIYYYAAAQTTHTTYPEGLEVLHFSSGQIEKHYPDGRKEITFPDQTVKNLFPDGQEESIFPDGTIVRVQRDGNKLIEFNNGQRELHTAQFKRREYPDGTVKTVYANGHQETKYRSGRIRVKDKEGNVSMDTEL
Inhibition of microtubule nucleation/assembly from purified centrosomes (in words) [2]: showed the ability to inhibit microtubule assembly

B4: GFP-CPAP-fl: GFP-tagged full-length CPAP polypeptide, residues 1-1338, expressed from a transfected vector (protein, UniProt Q9HC77 1-1338, looked up)
chain: B3 chain with R129L, P353L, S1333L
modifications: full-length GFP tag
notes: GFP-tagged full-length CPAP polypeptide, residues 1-1338, expressed from a transfected vector
Inhibition of microtubule reassembly in cold-treated cells (in words) ([1]; transfected HeLa cells expressing lower levels of the construct): no significant inhibition
Inhibition of microtubule reassembly in cold-treated mitotic cells (in words) [1]: significantly inhibited microtubule reassembly
